# Measurements from patent US7728193B2, “Phytochrome-interacting protein and a use thereof” (Genomine Inc., priority 2004, dated 2010).
# Target: T1, Arabidopsis thaliana phytochrome A (Arabidopsis thaliana, UniProt P14712)
# T1 construct: expressed in transfected cells; host or cells: EGY48 yeast strain with pSH18-34 reporter
# T1 sequence (P14712 1-1122): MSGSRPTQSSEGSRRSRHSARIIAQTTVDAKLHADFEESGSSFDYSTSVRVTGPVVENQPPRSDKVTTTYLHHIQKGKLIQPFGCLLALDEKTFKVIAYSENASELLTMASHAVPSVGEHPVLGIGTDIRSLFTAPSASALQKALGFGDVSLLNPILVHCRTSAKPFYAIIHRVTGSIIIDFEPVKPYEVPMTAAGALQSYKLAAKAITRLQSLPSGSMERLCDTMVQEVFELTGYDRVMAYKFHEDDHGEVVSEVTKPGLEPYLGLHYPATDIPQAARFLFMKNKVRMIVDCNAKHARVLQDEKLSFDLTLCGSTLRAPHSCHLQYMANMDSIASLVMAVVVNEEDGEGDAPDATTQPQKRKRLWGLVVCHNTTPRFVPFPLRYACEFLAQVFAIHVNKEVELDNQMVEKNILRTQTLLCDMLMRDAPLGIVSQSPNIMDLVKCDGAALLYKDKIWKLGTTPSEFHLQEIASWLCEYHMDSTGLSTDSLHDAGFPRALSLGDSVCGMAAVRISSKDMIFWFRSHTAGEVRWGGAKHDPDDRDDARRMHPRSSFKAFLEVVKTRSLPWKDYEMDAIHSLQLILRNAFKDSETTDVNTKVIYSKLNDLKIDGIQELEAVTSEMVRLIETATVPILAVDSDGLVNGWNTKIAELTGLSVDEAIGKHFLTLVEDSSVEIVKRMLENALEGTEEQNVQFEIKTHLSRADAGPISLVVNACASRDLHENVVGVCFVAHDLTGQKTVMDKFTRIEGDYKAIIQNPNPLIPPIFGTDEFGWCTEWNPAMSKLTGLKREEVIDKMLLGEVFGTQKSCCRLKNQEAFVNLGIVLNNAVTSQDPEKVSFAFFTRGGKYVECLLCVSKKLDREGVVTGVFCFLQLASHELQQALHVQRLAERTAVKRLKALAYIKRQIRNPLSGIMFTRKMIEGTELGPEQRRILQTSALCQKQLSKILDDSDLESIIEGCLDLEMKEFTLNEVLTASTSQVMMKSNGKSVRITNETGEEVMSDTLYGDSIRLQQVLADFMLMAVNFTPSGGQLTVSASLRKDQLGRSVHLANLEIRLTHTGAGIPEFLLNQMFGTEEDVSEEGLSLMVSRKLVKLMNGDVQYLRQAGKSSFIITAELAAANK
# Experiment: Yeast two-hybrid analysis of specificity of interaction
# Assay type: cell-based
# Conditions: EGY48 yeast, Leu-drop out and X-gal media
# Source text: A pGilda vector and a pJG4-5 vector (OriGene Technologies) were used to prepare a prey and a bait, […] (see FIG. 4). In this case, as control groups to examine specific binding, hepatitis C virus (HCV) protein NS5A(N) (distributed from professor S K Jang, Department of Life Science, Pohang University of Science and Technology, Korea) and another plant protein SPINDLY(SPY) having the TPR domain (Jacobsen, S. E., et al., Proc. Natl. Acad. Sci. U.S.A. 93:9292-9296, 1996) were used. Furthermore, the prey and the bait were interchanged to observe protein-protein binding by a reciprocal method. The prepared prey and bait together with a pSH18-34 reporter plasmid (OriGene Technologies) were co-introduced into an EGY48 yeast strain (OriGene Technologies). Next, the transformants were selected on a media containing X-gal (5-bromo-4-chloro-3-indolyl-β-D-galactopyranoside; Rose Scientific Ltd.). Plate-growth assays were performed on Leu-drop out media and X-gal media.
substance,measurement,value
"PAPP5: type 5 serine/threonine protein phosphatase of Arabidopsis thaliana interacting with phytochromes, SEQ ID NO: 4",interaction with phytochrome A in yeast two-hybrid,interacted specifically
